Experiments:
[1] = molecular target: poliovirus receptor-related 4 (ovis aries Nectin-4), Nectin 4-Myc (ovis aries); test: co-IP
[2] = molecular target: Peste-des-petits-ruminants virus haemagglutinin (H) protein of the Nigeria 75/1 strain, Hv-HA (Peste-des-petits-ruminants virus, strain Nigeria 75/1); test: co-IP
[3] = molecular target: Peste-des-petits-ruminants virus haemagglutinin (H) protein of the Nigeria 75/1 strain, Hv-HA (Peste-des-petits-ruminants virus, strain Nigeria 75/1); test: SPR

| Substance | calibrated ratio of co-IP (percent of Hv and Nectin 4) [1] [%] | calibrated ratio of co-IP (percent of Hv and Nectin 4) [2] [%] | Kd [3] [nM] | koff [3] [s⁻¹] | kon [3] [M⁻¹ s⁻¹] |
| --- | --- | --- | --- | --- | --- |
| Peste-des-petits-ruminants virus haemagglutinin (H) protein of the Nigeria 75/1 strain, Hv-HA (natural protein) | 100 |  |  |  |  |
| poliovirus receptor-related 4 (ovis aries Nectin-4), Nectin 4-Myc |  | 100 | 306 | 0.000435 | 1420 |
